The values below come from US20220175920A1.

Several values for one entry are separate records, joined by “and”; a condition that tells them apart may be missing. Equal values may be shown once.

The target in experiment [1] is human CD40 ectodomain human Fc fusion protein (human) (UniProt P25942). As to the kind of experiment: competition flow cytometry: mouse mAb titrated into 2 ug/ml human CD40 ectodomain-human Fc, 1 h on ice, then added to human CD40L-transfected L cells; cell-bound CD40-Fc detected with anti-IgG-PE; blocked ligand: CD40L on L cells [left panel].
Experiment [2] addresses human CD40 on cells (B cells, MDDCs, stably transfected CHO cells) (human) (UniProt P25942). As to the kind of experiment: cell-based or functional assay.

human CD40 on cells (B cells, MDDCs, stably transfected CHO cells) (human), sequence (P25942 21-277): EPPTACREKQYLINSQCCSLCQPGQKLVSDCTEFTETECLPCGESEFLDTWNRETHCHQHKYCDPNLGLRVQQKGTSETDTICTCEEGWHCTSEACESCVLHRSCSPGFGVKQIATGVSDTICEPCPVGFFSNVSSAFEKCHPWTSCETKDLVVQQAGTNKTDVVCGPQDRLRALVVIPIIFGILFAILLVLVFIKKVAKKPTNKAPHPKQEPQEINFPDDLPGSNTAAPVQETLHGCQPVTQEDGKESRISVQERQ
human CD40 ectodomain human Fc fusion protein (human), sequence (P25942 21-193): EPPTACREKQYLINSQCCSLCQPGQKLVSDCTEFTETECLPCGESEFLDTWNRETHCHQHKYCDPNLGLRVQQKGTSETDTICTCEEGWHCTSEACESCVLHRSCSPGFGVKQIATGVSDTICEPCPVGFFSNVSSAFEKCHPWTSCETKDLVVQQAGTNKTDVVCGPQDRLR

As for 12E12 (antibody), the IC50 (read off the curve) in experiment [1] stood at 0.1 µg/mL.
Regarding MEGACD40L (Mega sCD40L) (ligand), in experiment [2], the EC50 (nM) IL-12 p40, MDDC secretion was > 1 nM and < 10 nM; the EC50 (nM) IL-15, MDDC secretion is > 1 nM and < 10 nM; the EC50 (nM) TNFα, MDDC secretion was > 1 nM and < 10 nM; the EC50/11B6-CD40L, IL-12 p40 was 100. In experiment [2], this substance had an EC50/11B6-CD40L, IL-15 of 100 and an EC50/11B6-CD40L, TNFα of 100.
As for “human IgG4 control mAb with CD40L fused to the L chain”, in experiment [2], the EC50 (nM) B cell: 50% of maximum B cell proliferation (FIG. 10B) was > 10 nM; the fold less active in inducing B cell proliferation than the 11B6 and 12B4-CD40L fusion proteins came out at 10 fold.
